From US8815798B2, “Insulin analogues containing additional disulfide bonds” (priority 2010, dated 2014)

What was measured:
Human Insulin Receptor A = biological target: T1, Human Insulin Receptor A (Homo sapiens, UniProt P06213); assay: Insulin receptor binding assay (on solubilised insulin receptor), SPA; conditions: SPA competition with [125I]A14Tyr-labelled insulin, solubilized human IR-A
T1 construct: solubilized human IR (holoreceptor); made in house; host or cells: baby hamster kidney (BHK) cells stably transfected with pZem vector containing the human IR-A insert
T1 sequence (P06213 28-746 isoform P06213-2 limits assumed): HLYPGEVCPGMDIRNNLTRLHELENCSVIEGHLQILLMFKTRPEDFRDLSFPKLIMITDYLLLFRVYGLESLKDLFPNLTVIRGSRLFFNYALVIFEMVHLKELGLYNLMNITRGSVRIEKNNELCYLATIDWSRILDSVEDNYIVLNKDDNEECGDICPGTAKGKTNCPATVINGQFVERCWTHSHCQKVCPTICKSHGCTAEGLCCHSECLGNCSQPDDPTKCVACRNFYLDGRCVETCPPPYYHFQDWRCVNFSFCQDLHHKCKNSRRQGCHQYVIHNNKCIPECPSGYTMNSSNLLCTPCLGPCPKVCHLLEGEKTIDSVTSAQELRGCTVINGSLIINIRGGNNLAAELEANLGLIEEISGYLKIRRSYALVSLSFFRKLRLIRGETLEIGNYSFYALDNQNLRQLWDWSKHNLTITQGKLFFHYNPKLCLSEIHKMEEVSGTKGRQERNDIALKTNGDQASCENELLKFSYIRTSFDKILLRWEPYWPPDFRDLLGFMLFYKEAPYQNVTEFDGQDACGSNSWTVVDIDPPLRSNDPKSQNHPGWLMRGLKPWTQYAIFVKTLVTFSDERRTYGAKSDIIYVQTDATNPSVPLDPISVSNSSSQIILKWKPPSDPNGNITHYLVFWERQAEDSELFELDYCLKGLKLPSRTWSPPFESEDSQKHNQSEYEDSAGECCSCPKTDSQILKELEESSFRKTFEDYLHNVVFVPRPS
T1 sequence (P06213 763-1382 partner limits assumed): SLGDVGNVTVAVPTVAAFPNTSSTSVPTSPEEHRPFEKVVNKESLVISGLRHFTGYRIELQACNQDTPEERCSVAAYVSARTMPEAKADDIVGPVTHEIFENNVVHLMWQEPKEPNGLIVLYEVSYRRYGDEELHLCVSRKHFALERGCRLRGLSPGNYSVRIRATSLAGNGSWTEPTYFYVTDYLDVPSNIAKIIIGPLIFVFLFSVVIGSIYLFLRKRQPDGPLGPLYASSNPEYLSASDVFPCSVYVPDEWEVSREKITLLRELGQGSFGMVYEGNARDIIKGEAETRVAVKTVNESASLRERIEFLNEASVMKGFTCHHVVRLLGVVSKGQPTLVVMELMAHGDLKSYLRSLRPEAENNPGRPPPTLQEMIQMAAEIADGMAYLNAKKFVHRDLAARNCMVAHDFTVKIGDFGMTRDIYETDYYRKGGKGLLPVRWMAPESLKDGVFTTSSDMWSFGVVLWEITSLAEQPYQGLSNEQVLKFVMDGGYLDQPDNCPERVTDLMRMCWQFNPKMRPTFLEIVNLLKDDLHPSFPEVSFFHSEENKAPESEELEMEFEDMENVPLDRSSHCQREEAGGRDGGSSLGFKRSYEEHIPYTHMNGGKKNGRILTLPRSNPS
Experimental: (2008), Biochemistry, 47, 4743-4751). Competition binding experiments were performed in 96-well plates (polystyrene Optiplate-96, PerkinElmer) on an Eppendorf epMotion 5075 robot using solubilized human IR (holoreceptor) semipurified by wheat germ agglutinin purification from baby hamster kidney (BHK) cells, which were stably transfected with the pZem vector containing the human IR-A or IR-B insert. […] A reagent mix consisting of SPA beads (SPA PVT Antibody-Binding Beads, Anti-Mouse Reagent Cat. No. […] (2008), Biochemistry, 47, 4743-4751). Competition binding experiments were performed in 96-well plates (polystyrene OPTIPLATE-96TM, PerkinElmer) on an Eppendorf EPMOTION® 5075 robot using solubilized human IR (holoreceptor) semipurified by wheat germ agglutinin purification from baby hamster kidney (BHK) cells, which were stably transfected with the pZem vector containing the human IR-A or IR-B insert. […] A reagent mix consisting of SPA beads (SPA PVT Antibody-Binding Beads, Anti-Mouse Reagent Cat. No.

[1] = Hydrophobicity by isocratic reverse phase HPLC (k'rel); type: physicochemical; conditions: hydrophobicity relative to human insulin (k'rel HI = 1); isocratic RP-HPLC, pH 7.3
Experimental: The hydrophobicity, k′rel, is calculated as: k′relderiv=((tderiv−t0)/(trel−t0))*k′relref. Using HI as reference: k′relref=k′relHI=1. The void time of the HPLC system, t0, is determined by injecting 5 μl of 0.1 mM NaNO3. Running conditions:
Column: Lichrosorb RP-C18, 5 μm, 4×250 mm
Buffer A: 0.1 M natrium phosphate pH 7.3, 10 vol % CH3CN
After running an initial gradient, the isocratic level for running the analogue and reference (for example HI) is chosen, and the elution times of the analogue and reference under isocratic conditions are used in the above equation to calculate k′relderiv.

[2] = Thioflavin T (ThT) fibrillation assay; type: physicochemical; conditions: mean of four samples with standard deviation, 37° C., 960 rpm
Text: General Procedure for Thioflavin T (ThT) Fibrillation Assay:
This has traditionally been measured by visual inspection of the sample. However, that kind of measurement is very subjective and depending on the observer. Therefore the application of a small molecule indicator probe is much preferred. […] The time course for fibril formation can be described by a sigmoidal curve with the following expression (Nielsen at al. Biochemistry 40, 6036-6046, 2001):
Here, F is the ThT fluorescence at the time t. The constant t0 is the time needed to reach 50% of maximum fluorescence.
Samples were prepared freshly before each assay. […] Thioflavin T was added to the samples from a stock solution in water to a final concentration of 1 μM. Sample aliquots of 200 μl were placed in a 96 well microtiter plate (Packard Optiplate™-96, white polystyrene). Usually four replica of each sample (corresponding to one test condition) were placed in one column of wells. The plate was sealed with Scotch Pad (Qiagen).
The temperature was adjusted to 37° C. […] Fluorescence measurements were done using excitation through a 444 nm filter and measurement of emission through a 485 nm filter.
Each run was initiated by incubating the plate at the assay temperature for 10 min. The plate was measured every 20 minutes for typically 45 hours. Between each measurement, the plate was shaken and heated as described above.
The data points are typically a mean of four samples. Only data obtained in the same experiment (i.e. samples on the same plate) are presented in the same graph ensuring a relative measure of fibrillation between the individual samples of one assay rather then comparison between different assays.
The data set may be fitted to Eq. (1).

Primary rat adipocytes = assay: Lipogenesis in rat adipocytes; type: cell-based; conditions: 3H-glucose conversion into extractable lipids; relative potency compared to human insulin
Text: As a measure of in vitro potency of the insulins of the invention, lipogenesis can be used.
The labelled glucose is converted into extractable lipids in a dose dependent way, resulting in full dose response curves.

A10C, A21G, B2C, B3E, B28E, desB30 human insulin [Example 17]
Relative Affinity to Human Insulin Receptor A (% HI) (Human Insulin Receptor A): 80.0 % HI

A10C, A21G, B3C, desB27, B28E, desB30 human insulin [Example 23]
Relative Affinity to Human Insulin Receptor A (% HI) (Human Insulin Receptor A): 20.0 % HI

A10C, A22K, B3C, desB27, desB30 human insulin [Example 28]
k′-rel (human insulin) [1]: 0.0810
ThT fluorescence, 0 h ([2]; 0 h): 35.8 ± 0.9
ThT fluorescence, 2 h ([2]; 2 h): 29.4 ± 1
ThT fluorescence, 20 h ([2]; 20 h): 27.6 ± 0.8
ThT fluorescence, 45 h ([2]; 45 h): 25 ± 0.7
Lipogenesis (potency rel to HI) (Primary rat adipocytes): 25.3%

A21C, B10E, B26C, desB30 human insulin [Example 78]
Relative Affinity to Human Insulin Receptor A (% HI) (Human Insulin Receptor A): 10.0 % HI
